Target: SH3-peptide-tagged TVMV-inducible HCV-based signal transducers
Assay: cell-based or functional assay

B1: SH3-H6-68-AP (protein)
chain: SGGSGAEYVRALFDFNGNDEEDLPFKKGDILRIRDKPEEQWWNAEDSEGKRGMIPVPYVEKYRPASASVSALIGGRGGSGGSGGSGGSGGSGGSSKALLKGVRDFNPISACVCLLENSSDGHSERLFGIGFGPYIIANQHLFRRNNGELTIKTMHGEFKVKNSTQLQMKPVEGRDIIVIKMAKDFPPFPQKLKFRQPTIKDRVCMVSTNFQQKSVSSLVSESSHIVHKEDTSFWQHWITTKDGQCGSPLVSIIDGNILGIHSLTHTTNGSNYFVEFPEKFVATYLDAADGWCKNWKFNADKISWGSFILWEDAPEDFMSGLVPRGVGREYVRFAPGSTHHHHHH
B1 showed an induction ratio of 20 fold.

Reference: patent publication US9791436
